Target: T1, His-FtsZ fusion protein (Streptococcus suis SC19, UniProt A0A0H3MXZ7 1-409)
T1 sequence (looked up): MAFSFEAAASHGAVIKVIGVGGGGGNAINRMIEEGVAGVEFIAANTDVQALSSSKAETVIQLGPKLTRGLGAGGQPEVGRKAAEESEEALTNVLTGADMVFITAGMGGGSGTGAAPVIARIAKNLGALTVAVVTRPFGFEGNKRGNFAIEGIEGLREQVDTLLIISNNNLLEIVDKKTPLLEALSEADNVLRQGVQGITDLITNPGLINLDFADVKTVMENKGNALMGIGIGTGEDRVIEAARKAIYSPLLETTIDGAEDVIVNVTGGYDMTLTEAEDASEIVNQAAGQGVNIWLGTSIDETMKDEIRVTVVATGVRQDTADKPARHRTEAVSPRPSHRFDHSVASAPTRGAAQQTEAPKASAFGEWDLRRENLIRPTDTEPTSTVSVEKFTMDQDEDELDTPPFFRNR
Assay: BLI

B1: SepF labeled with biotin (natural protein, Streptococcus suis SC19, UniProt A4VTL1 1-187, looked up)
chain: MALKDTFKNLFNYFEVDEVNEVEEQADAYSMPNDRPKMRVANTTVAPVREQQPKVETRREARSESQLQRLHERQQELMTNNNEKEIVKTTIDIKFPKRYEDAPEMVNLLLDNASILIDFQYMSEQQARRCLDYLDGARSVLSGNLKKVSNTMWLLTPVNVTVNIEELRNAGTTTGVADSNFEFDIKR
modifications: biotin (biotin labeling kit; sites not stated)
  Kd: 0.67 nM

— paper PMC11956251 (BMC Microbiology, 2025)
